The record followed here is patent US20200025759A1 (PANASONIC INTELLECTURAL PROPERTY MANAGEMENT, published 2020).

Assay [1] addresses recombinant nucleoprotein (NP) protein derived from influenza virus H1N1 to which a Flag tag was fus (influenza virus H1N1).
Assay [2] addresses intranuclear protein derived from type-A influenza virus H7N7 (A/seal/Massachusetts/1/1980) (type-A influenza virus H7N7 …, UniProt P26053 1-498). Kind of assay: ELISA, virus solution immobilized on plate, anti-His-HRP detection. In general terms: In an ELISA, binding on a coated surface is turned into a signal by an enzyme label.
The target in assay [3] is intranuclear protein derived from type-A influenza virus H1N1 (A/Puerto Rico/8/34/Mount Sinai) (type-A influenza virus H1N1 (A/Puerto …, UniProt P03466 1-498)). The assay is described as above.
Chain of intranuclear protein derived from type-A influenza virus H1N1 (A/Puerto Rico/8/34/Mount Sinai) (type-A influenza virus H1N1 (P03466 whole entry): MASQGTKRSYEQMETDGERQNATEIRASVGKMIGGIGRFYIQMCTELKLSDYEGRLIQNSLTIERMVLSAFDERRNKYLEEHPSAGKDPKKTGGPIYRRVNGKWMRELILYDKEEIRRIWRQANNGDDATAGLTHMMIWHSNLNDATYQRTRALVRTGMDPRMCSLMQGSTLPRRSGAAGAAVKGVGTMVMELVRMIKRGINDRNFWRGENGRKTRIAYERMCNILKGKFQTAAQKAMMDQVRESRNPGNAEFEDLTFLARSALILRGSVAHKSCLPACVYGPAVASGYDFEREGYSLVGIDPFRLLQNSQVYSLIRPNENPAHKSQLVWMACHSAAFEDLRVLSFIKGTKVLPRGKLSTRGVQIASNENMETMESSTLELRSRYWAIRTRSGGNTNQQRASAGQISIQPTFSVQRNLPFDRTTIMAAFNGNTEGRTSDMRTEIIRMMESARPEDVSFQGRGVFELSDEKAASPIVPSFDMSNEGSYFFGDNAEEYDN
Assay [4] addresses intranuclear protein derived from type-A influenza virus H11N6 (A/duck/England/1/1956) (type-A influenza virus H11N6 …, UniProt P26062 1-498). The assay is described as above.
Assay [5] concerns the target recombinant intranuclear protein (SEQ ID NO: 24) derived from a type-A influenza virus H1N1 (A/Puert (type-A influenza virus H1N1 (A/Puerto …, UniProt P03466 1-498))). Kind of assay: phage ELISA on immobilized NP, anti-M13 detection, absorbance at 450 nm.

Usually Kd stands for the concentration at which binding is half-saturated.

Chain of intranuclear protein derived from type-A influenza virus H11N6 (A/duck/England/1/1956) (P26062 whole entry): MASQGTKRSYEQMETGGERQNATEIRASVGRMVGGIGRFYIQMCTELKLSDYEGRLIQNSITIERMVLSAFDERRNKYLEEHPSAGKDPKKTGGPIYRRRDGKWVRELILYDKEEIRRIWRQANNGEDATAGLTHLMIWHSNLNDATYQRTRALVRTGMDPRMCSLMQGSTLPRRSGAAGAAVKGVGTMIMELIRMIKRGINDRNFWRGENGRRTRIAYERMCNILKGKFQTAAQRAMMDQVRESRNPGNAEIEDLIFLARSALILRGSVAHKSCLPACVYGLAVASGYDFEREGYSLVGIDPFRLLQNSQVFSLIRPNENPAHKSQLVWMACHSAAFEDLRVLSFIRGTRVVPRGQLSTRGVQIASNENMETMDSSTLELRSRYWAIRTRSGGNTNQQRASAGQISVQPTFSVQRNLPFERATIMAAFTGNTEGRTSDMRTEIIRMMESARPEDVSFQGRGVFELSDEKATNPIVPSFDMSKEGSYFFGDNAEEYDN
Chain of intranuclear protein derived from type-A influenza virus H7N7 (A/seal/Massachusetts/1/1980) (P26053 whole entry): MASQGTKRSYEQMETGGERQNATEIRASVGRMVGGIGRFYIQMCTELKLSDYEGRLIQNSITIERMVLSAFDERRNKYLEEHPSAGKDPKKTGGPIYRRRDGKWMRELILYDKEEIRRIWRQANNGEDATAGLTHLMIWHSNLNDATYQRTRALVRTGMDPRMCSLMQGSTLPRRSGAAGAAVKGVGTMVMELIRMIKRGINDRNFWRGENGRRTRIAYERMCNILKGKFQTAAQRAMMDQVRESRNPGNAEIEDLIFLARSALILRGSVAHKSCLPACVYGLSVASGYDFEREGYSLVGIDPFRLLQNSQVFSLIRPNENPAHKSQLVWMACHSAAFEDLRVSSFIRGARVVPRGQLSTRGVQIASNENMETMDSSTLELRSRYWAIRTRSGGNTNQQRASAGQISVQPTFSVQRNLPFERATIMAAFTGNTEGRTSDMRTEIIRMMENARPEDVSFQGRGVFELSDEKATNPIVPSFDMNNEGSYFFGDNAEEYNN
Chain of recombinant intranuclear protein (SEQ ID NO: 24) derived from a type-A influenza virus H1N1 (A/Puert (type-A influenza virus H1N1 (P03466 whole entry): as the sequence (P03466 whole entry) above
Chain of recombinant nucleoprotein (NP) protein derived from influenza virus H1N1 to which a Flag tag was fus (influenza virus H1N1) (P03466 whole entry): as above

B1: VHH antibody consisting of the amino acid sequence represented by SEQ ID NO: 8 (VHH)
VHH: QVQLVESGGGLVQAGGSLRLSCIASGSIFSPNVMGWYRQAPGKPRELVAAITLGESTNYADSVKGRFTISRSNAENTVYLQMDSLKPEDTAVYYCNAGPILERVGPYWGQGTQVTVSS
Take B1: the Kd in assay [1] was 0.826 nM. For the same molecule, the binding result in assay [2], in assay [3] and in assay [4] was “binds” each time.

B2: phage-displayed VHH antibody (protein synthesized from the DNA sequence represented by SEQ ID NO: 18, i.e. SEQ ID NO: 8) (VHH)
VHH: QVQLVESGGGLVQAGGSLRLSCIASGSIFSPNVMGWYRQAPGKPRELVAAITLGESTNYADSVKGRFTISRSNAENTVYLQMDSLKPEDTAVYYCNAGPILERVGPYWGQGTQVTVSS
In the case of B2, the binding result in assay [5] was “binds”.
